The DeepSol protein solubility set

assay: soluble on expression in E. coli; label from the status in PepcDB or PDB records

Sequence | soluble on expression in E. coli
MSLASAMASSALREATCTMTRLAADVAASVSSIFSCKDSAGPRPVVPATKTTSTPLDVMFFTWFAKSSGSSLPPLKVVMTGATISIDSTRGALKKLARKGIKGWLNQYMATIKEIEPIVLYEQETDARWASYSILVRVVTSDGRVSYGEAVPTLRILPVVSAVRQTARAFLGRDPHEISAAFYEWYRQDFFLSRSFESATALSAIDMALWDLKARELGAPLYELLGGKLRDRVKVYANGWYGGCRDPQCFAEKAKEVVARGYDALKFDPFGPSFNSITSEELRRAEEAVAAVRDAVGDDVDILIEHHGRFNANAAVEIAKRFEPYRPYFMEEPLHHEDIEGYRKYRSLTSARIAMGERLISAKEALQYLVEGLVDVIQPDACNIGGVTGSMKVAALAEAFSVEVSYHNAYGPVQFALEVQLSAVTPTLYRLESFYDYWPQWKRDLIGDPFRLSQSSVEVPRGPGIGVAVNERVLEKYRAEPSEIPVGEEPVWVVRGTWREGHHHHHH | not soluble
RFNVFDFRGATLIADYGHNPDAIQALVRAIDTMPARRRSVVISGAGDRRDEDLRQQTEILGGAFDDVILYQDQCQRGRADGEVVALLRQGLQQAPRTRHIDEIQGEFVAIDAALERLAPGDLCLILVDQ | not soluble
MKKKNVVVFGGGTGLSVLLRGLKTFPVSITAIVTVADDGGSSGRLRKELDIPPPGDVRNVLVALSEVEPLLEQLFQHRFENGNGLSGHSLGNLLLAGMTSITGDFARGISEMSKVLNVRGKVLPASNRSIILHGEMEDGTIVTGESSIPKAGKKIKRVFLTPKDTKPLREGLEAIRKADVIVIGPGSLYTSVLPNLLVPGICEAIKQSTARKVYICNVMTQNGETDGYTASDHLQAIMDHCGVGIVDDILVHGEPISDTVKAKYAKEKAEPVIVDEHKLKALGVGTISDYFVLEQDDVLRHNASKVSEAILEGKPRTSSSIQAAALEHHHHHH | soluble
QVQLQQPGTELVRPGASVILSCKASGYTFTSYWINWVKQRPGQGLEWVGNIFPSDSYTNYNQKFKDKATLTVDKSSSTAYMQVNSPTSEDSAVYYCTRGARDTWFAYWGQGTLVTVSVAKTTPPSVFPLAPGSAAQTNSMVTLGCLVKGYFPEPVTVTWNSGSLSSGVHTFPAVLQSDLYTLSSSVTVPSSTWPSETVTCNVAHPASSTKVDKKIVPRDC | soluble
MDKMFKRTLLGAAVAMASTGAFAASETGAIGVLSDFNVQAYGVAAISAFYQEDSNGYDYENESRIGFRASKDMFDNVNVFMQIESGYVGEDGKGSTLGARDTFLGLQGDWGKVRFGRMLTPLYEIVDWPYSNPGLGRVFDWGGDVAGHYDRKGDIARYDSPAFGGLTFNISAGRGDVGTKSSNHFGAAAHYNAADIVTFHVGYENNSNFKYDYKTKDTAGKDVDNTFLTDATAYIVGFELPLPAGFGLAGAYKYTEGASKTVKGQEGEQGQYSLIGQYWNGPWGFKVGYAANLESEVNGVEQKDDDEVLSAQLMYVKNGFVPYIRVGQHDAYDSADKKGFVRVGLEYGF | not soluble
MPMFNTLTSLFKQLLEGQDLAQHSATPELAIACLLSEVAGADQQISAPEQQAKLALLQHLLQCTAEQASDLLMRAEQEVKQSASLYDFTSQLRSLSQTQRFELIKAMWEVANADGTIDPLEDAVIRKAAELLYVDHSQFIRAKLMAADKHQSPE | not soluble
MLDYVPWIGNGYRYGNNHRGSNSSTSGVTTQGQSQNASSNEPAPTFSNVGVGLKANVNGTLSGSRTTPNQQGTPWLTLDQANLQLWTGAGWRNDKNGQSDENYTNFASAKGSTNQQGSTTGGSAGNPDSLKQDKADKSGDSVTVAEATSGDNLTNYTNLPPTSPPHPTDRTRCHSPTRTTPSGCSCSCAACWAASRCWSIRVGKMITVSLIPPTKNGLTPNLEHHHHHH | not soluble
MSLTKIVIIGGVAGGASAAARARRLSEDAEIIMFERGPYVSFANCGLPYHIGGDIKERSNLLLQTPESFLARFNVDVRTMNEVLRINRAAKTITVRNLLDQSEYDENYDFLLLSPGAGPVIPPIPGIQNPLTHSLRNIPDMDKIIQTLQMNKPEHATVVGGGFIGLEMMEAFHHLGIKTTLIEMADQVMTPVDREMAGFAHAEIRAKGIDLRLGAALKSVEYRPAATLPSAESGESLEHKHVEGELDLLLSNGDTLTTDILIMAIGVRPETKLAAEAGLQLGELGGIWVNEQMQTSDPAIYAVGDAVEEKDFVTGKQTLVPLAGPANRQGRMAADNMLGRNESYQGTQGTAICKIFDLAVASTGKNEKQLKREGIAYEKVYVHTASHASYYPGAEVVSFKMLFDPQTGKIFGAQAVGKDGIDKRIDVMAVAQRAGMTVEQLQHLELTYAPPFGSAKDVINQAAFVATNLIKGDAKAIHFDEIDNLTDEQVLLDVRNPMELQNMGYLPGAINIPVDQLRQHMNELPKDKEIVIYCQVGLRGNVAYRQLVNNGFKARNLIGGYRTYKFAKAEGHHHHHH | soluble
NPHLLVKYHSGFFVDGKFLCCQQSCKAAPGCTLWEAY | soluble
MACFSSLSTGVLDMYDLIIVGGGPSGASAGRVAGKAGISTLLIEKENFPRYKPCGGALSPYALSCLDFKLPEYLIEKDISRIRVHFRELCTEMQKDYSIALLVSRKAFDNFLLDKARETGIDIHSGEKVLDCEEGEECVEVRTSQNTYLAKFVLIAEGSEGVLKYSVRKRKDRRTEYDLALVSEIPERDKVIRKRFPNAIDMHFGIASGGYGWIFPHSEHYSVGIVGTAEHLKHPKAVMQDFLQANGFSGDFQVHSHIIPVGGIKRKTISSRILLSGDAAGFVDAFIGEGISYAIRSGQLAAENVAEIVLYNRKLSDLKEYETSCRKEFGNFLSSSLKLEKAMHRFPETSFRLALSRKEIIDKYLEEVVINRSHKDYVRWLLLNFSLSEPASKIKSIKDKNQLEHHHHHH | not soluble
MHYSYLEPGLHAELAAITPDEAVAHLRNHLGNLLLDPAVTAAYINRLGVLTPEETTPSTRAWLTYLLVRYCDLLPLDLAAQRILAQVTGNAAPHLRDLERCAIPDPIERKLERLGAGEDSERNRAMLLALLHEYPYSPAIMERLMTVELALDIPVGGEWLPSVRPPAGLLRPLHERLFIHAMMQGDTERALQHAAACVPDNPSPHLLNHLAELHARLGDTQQALNLYGASLEADPLQHPVRLRMEALAKPPRAHADALHHRIAICLYSFNKAELLERTLSSLAASQTGEAHILVLLNGCTDDSATRVAAVNERLFNGRLEVIDMPINIGAPAARNWLLAKQTVREADFVAFLDDDVDVPAAWLPRLVGNLEEHPGAGVAGTRVRNPGDVPRLQYLYRNISVARPGLIRLSLDTPTLHHDTGFYDFTRSTTSVMGCCHVFTRRALDEVPAFDLRFSPSQMDDIAHDIDLALAGFDVLYTGDVVCVHHQMSGLGRANATDWKRFGNVAGNDVKFYYRFADRLDALGRLNNLGFMPDMPPALEHHHHHH | soluble
MTTLKLDTLSDRIKAHKNALVHIVKPPVCTERAQHYTEMYQQHLDKPIPVRRALALAHHLANRTIWIKHDELIIGNQASEVRAAPIFPEYTVSWIEKEIDDLADRPGAGFAVSEENKRVLHEVCPWWRGQTVQDRCYGMFTDEQKGLLATGIIKAEGNMTSGDAHLAVNFPLLLEKGLDGLREEVAERRSRINLTVLEDLHGEQFLKAIDIVLVAVSEHIERFAALAREMAATETRESRRDELLAMAENCDLIAHQPPQTFWQALQLCYFIQLILQIESNGHSVSFGRMDQYLYPYYRRDVELNQTLDREHAIEMLHSCWLKLLEVNKIRSGSHSKASAGSPLYQNVTIGGQNLVDGQPMDAVNPLSYAILESCGRLRSTQPNLSVRYHAGMSNDFLDACVQVIRCGFGMPAFNNDEIVIPEFIKLGIEPQDAYDYAAIGCIETAVGGKWGYRCTGMSFINFARVMLAALEGGHDATSGKVFLPQEKALSAGNFNNFDEVMDAWDTQIRYYTRKSIEIEYVVDTMLEENVHDILCSALVDDCIERAKSIKQGGAKYDWVSGLQVGIANLGNSLAAVKKLVFEQGAIGQQQLAAALADDFDGLTHEQLRQRLINGAPKYGNDDDTVDTLLARAYQTYIDELKQYHNPRYGRGPVGGNYYAGTSSISANVPFGAQTMATPDGRKAHTPLAEGASPASGTDHLGPTAVIGSVGKLPTAAILGGVLLNQKLNPATLENESDKQKLMILLRTFFEVHKGWHIQYNIVSRETLLDAKKHPDQYRDLVVRVAGYSAFFTALSPDAQDDIIARTEHML | soluble
MGSDKIHHHHHHMSKTRYYLEQCIPEMDDLVEKGLFTKNEVSLIMKKRTDFEHRLNSRGSSINDYIKYINYESNVNKLRAKRCKRILQVKKTNSLSDWSIQQRIGFIYQRGTNKFPQDLKFWAMYLNYMKARGNQTSYKKIHNIYNQLLKLHPTNVDIWISCAKYEYEVHANFKSCRNIFQNGLRFNPDVPKLWYEYVKFELNFITKLINRRKVMGLINEREQELDMQNEQKNNQAPDEEKSHLQVPSTGDSMKDKLNELPEADISVLGNAETNPALRGDIALTIFDVCMKTLGKHYINKHKGYYAISDSKMNIELNKETLNYLFSESLRYIKLFDEFLDLERDYLINHVLQFWKNDMYDLSLRKDLPELYLKTVMIDITLNIRYMPVEKLDIDQLQLSVKKYFAYISKLDSASVKSLKNEYRSYLQDNYLKKMNAEDDPRYKILDLIISKL | not soluble
MSLTDRIFINAVDAGGQPIHLVVRDGRFIAIGADCAAAPGAETIDLDGRVVLPGFVDGHIHLDKSFVGDRWVPHEPVGTLRERLAVEKRQLAAAPPIVERANALIAQAAAFGTVAMRSHVDVDATTGLSNLQAVMAAREQWRGIVDIELVAFPQAGVVTCPGTAEILDVAVREGADVVGGIDPTTLDGDADGQLDIVFGIAEKRGAKIDIHLHEPGETGIAQLLRIAARTRAAGLGGRVNVSHAYALGQVSDGDVQRTAAALAEAGVSILTNAPGDCAFPPVQALRDAGVHVFAGNDNIRDAWWPYGNGDMLQRAMMVGYRSGFYTDEALGIALDMATHAGARVIGKDNYGIAVGRDATFVAVRAPNAAAAVAGVPAERWVFRRGESDTGAPFAPALRFTREGHHHHHH | soluble
MGSDKIHHHHHHMIKVAVVGTVGIPACYGGFESLVENLTSYTSNKIEYDVFCSSKSYTNKRSHYNGAQLSYIPLNANGVQSIFYDIISLIFCIFKKPDVTLVLGVSGCLFLPVYRLLSKSKIVTNIDGLEWKRDKWSKWAKKFLKFSEYMAVKFSDVVITDNKAIGDYVNAEYSKDNVVIAYGGDHAIIEGKHVGPEQDYYLSLCRIEPENNVQMILNAFSKSQHKLKFVGNWNSSEFGRKLKREFSDQPNIDIVDPIYDVNQLFKLRSECKGYVHGHSAGGTNPSLVEAMHFEKTIFAFDCNFNRYTTEDKAVYFSSSKELNDKLTEVTKDELAVISTDMKQIADRRYTWKVINHMYEETYL | not soluble
MTSVNLSYPIGEYKPRESISKEQKDKWIQVLEEVPAKLKQAVEVMTDSQLDTPYRDGGWTVRQVVHHLADSHMNSYIRFKLSLTEETPAIRPYDEKAWSELKDSKTADPSGSLALLQELHGRWTALLRTLTDQQFKRGFYHPDTKEIITLENALGLYVWHSHHHIAHITELSRRMGWS | soluble
MSLADRLLDIKRIYHEPGIERFPRARAVLERYPDAERVEVLSHQAIPGLYGNEGNVEDWVRNKREVMVIGEKKSLSARRNERSSDWIAPSTANGCAMACSYCYVPRRKGYANPITVFANIEKITGYLERHAARQGAKPEPNQCDPIDWVYDIGENSDCSADAMVSDNVRDLVDLFGRIPNAKASFATKLVNRDLLTYEPRGGTRVRFSLMPAETSRLVDVRTSKISDRIAAIDDFVEAGYEVHLNFSPVIVHENWIADWADLLEQIADQTNDRTRRQLAAEVIFLTHNEGLHDVNLGWHPKGEELLWRPDLQQLKRSQSGQWNVRYKSPWKGKWVQQMTDLVADRLPDCRIRYAEGHHHHHH | not soluble
MKIYVSCDIEGLAGIATFDMEKEDTVLFRELYHQHVAWLIEGIQKSAKNEQITEITIADSHSRGLNLAYARLAEMDERISLVSGFPRMDYMMSGLDSSYDVVFFLGYHAGIGKQKGNMDHGYSASVAYDLKINDLAMNETTINAAYASELGVPVGLIIGESGLEEQLFQEKMMPEVPFVSTKESLGRYAIKNRPMQQVREAIVATTSQVLTSFALSELPRYALQTPATVKLQCVTTAQADRIEMLPMIKRIDGRTVSFVGETMKDVMNGIVAVVGLGGTSY | not soluble
